This assay deals with prostate specific membrane antigen (PSMA) (UniProt Q04609 1-750, limits assumed). As to the kind of experiment: cell-based or functional assay.
Chain of prostate specific membrane antigen (PSMA) (Q04609 whole entry, form in doubt): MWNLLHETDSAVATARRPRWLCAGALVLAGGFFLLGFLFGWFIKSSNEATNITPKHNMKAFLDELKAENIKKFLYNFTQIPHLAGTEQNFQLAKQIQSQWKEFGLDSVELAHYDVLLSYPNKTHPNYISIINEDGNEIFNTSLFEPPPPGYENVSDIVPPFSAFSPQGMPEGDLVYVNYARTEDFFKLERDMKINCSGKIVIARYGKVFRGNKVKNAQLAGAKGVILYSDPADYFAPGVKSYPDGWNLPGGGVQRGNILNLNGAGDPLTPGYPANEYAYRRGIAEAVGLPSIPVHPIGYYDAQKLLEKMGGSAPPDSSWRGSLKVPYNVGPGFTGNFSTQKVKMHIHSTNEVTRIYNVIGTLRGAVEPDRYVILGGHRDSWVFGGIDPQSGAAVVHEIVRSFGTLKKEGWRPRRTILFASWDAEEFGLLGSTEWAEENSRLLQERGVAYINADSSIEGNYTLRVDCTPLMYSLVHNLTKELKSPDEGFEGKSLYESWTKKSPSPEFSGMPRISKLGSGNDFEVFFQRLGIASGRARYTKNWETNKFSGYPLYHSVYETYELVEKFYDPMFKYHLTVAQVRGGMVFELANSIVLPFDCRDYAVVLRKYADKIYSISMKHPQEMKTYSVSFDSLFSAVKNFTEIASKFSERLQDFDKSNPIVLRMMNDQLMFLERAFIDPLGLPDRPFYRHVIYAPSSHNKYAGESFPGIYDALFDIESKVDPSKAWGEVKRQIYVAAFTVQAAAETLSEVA

B1: CAR41, anti-PSMA CAR with 4-1BB co-stimulatory domain (scFv D7) (other)
chain: MDFQVQIFSFLLISASVIMSRMAQVQLQQSGAELVEPGASVKLSCKASGYTFTYFDINWLRQRPEQGLEWIGGISPGDGNTNYNENFKGKATLTIDKSSTTAYIQLSRLTSEDSAVYFCARDGNFPYYAMDSWGQGTSVTVSSAKTTPKLGGGGSGGGGSGGGGSARVDIELTQSPLSLPVILGDQASISCRSSQSLVHSNGNTYLHWFLQKPGQSPKLLIYTVSNRFSGVPDRFSGSGSGTDFTLKISRVEAEDLGVYFCSQSTHVPTFGGGTKLEIKRAAALPAEPKSPDKTHTCPPCPAPPVAGPSVFLFPPKPKDTLMIARTPEVTCVVVDVSHEDPEVKFNWYVDGVEVHNAKTKPREEQYNSTYRVVSVLTVLHQDWLNGKEYKCKVSNKALPAPIEKTISKAKGQPREPQVYTLPPSRDELTKNQVSLTCLVKGFYPSDIAVEWESNGQPENNYKTTPPVLDSDGSFFLYSKLTVDKSRWQQGNVFSCSVMHEALHNHYTQKSLSSLSPGKKIYIWAPLAGTCGVLLLSLVITLYCKRGRKKLLYIFKQPFMRPVQTTQEEDGCSCRFPEEEEGGCELLRVKFSRSADAPAYQQGQNQLYNELNLGRREEYDVLDKRRGRDPEMGGKPRRKNPQEGLYNELQKDKMAEAYSEIGMKGERRRGKGHDGLYQGLSTATKDTYDALHMQALPPR
For B1, the “cytotoxicity (XTT assay), PSMA expressing cells eliminated at E:T ratio 1:1” value is not above 90%.

B2: CAR28, anti-PSMA CAR with CD28 co-stimulatory domain (scFv D7) (other)
chain: MDFQVQIFSFLLISASVIMSRMAQVQLQQSGAELVEPGASVKLSCKASGYTFTYFDINWLRQRPEQGLEWIGGISPGDGNTNYNENFKGKATLTIDKSSTTAYIQLSRLTSEDSAVYFCARDGNFPYYAMDSWGQGTSVTVSSAKTTPKLGGGGSGGGGSGGGGSARVDIELTQSPLSLPVILGDQASISCRSSQSLVHSNGNTYLHWFLQKPGQSPKLLIYTVSNRFSGVPDRFSGSGSGTDFTLKISRVEAEDLGVYFCSQSTHVPTFGGGTKLEIKRSDPAEPKSPDKTHTCPPCPAPPVAGPSVFLFPPKPKDTLMIARTPEVTCVVVDVSHEDPEVKFNWYVDGVEVHNAKTKPREEQYNSTYRVVSVLTVLHQDWLNGKEYKCKVSNKALPAPIEKTISKAKGQPREPQVYTLPPSRDELTKNQVSLTCLVKGFYPSDIAVEWESNGQPENNYKTTPPVLDSDGSFFLYSKLTVDKSRWQQGNVFSCSVMHEALHNHYTQKSLSLSPGKKDPKFWVLVVVGGVLACYSLLVTVAFIIFWVRSKRSRLLHSDYMNMTPRRPGPTRKHYQAYAAARDFAAYRSLRVKFSRSADAPAYQQGQNQLYNELNLGRREEYDVLDKRRGRDPEMGGKPRRKNPQEGLYNELQKDKMAEAYSEIGMKGERRRGKGHDGLYQGLSTATKDTYDALHMQALPPR
Take B2: the “cytotoxicity (XTT assay), PSMA expressing cells eliminated at E:T ratio 1:1” value is not above 90% and the “cytotoxicity (XTT assay), target cells eliminated at E:T ratio 1:4, 48 h co-culture with C4-2 cells” value is approximately 90%.

(Values after patent publication US20210371491A1 (ALBERT LUDWIGS UNIVERSITAET FREIBURG, published 2021).)
